{"source": "patent US20260240884A1", "about": "“MIXTURE OF HUMAN MILK OLIGOSACCHARIDES” (N.V. Nutricia, priority 2023, published 2026)", "molecules": {"B1": {"name": "Lactoferrin: lactoferrin, control test compound (protein, UniProt P02788 20-710, looked up)", "Lactotransferrin": "GRRRSVQWCAVSQPEATKCFQWQRNMRKVRGPPVSCIKRDSPIQCIQAIAENRADAVTLDGGFIYEAGLAPYKLRPVAAEVYGTERQPRTHYYAVAVVKKGGSFQLNELQGLKSCHTGLRRTAGWNVPIGTLRPFLNWTGPPEPIEAAVARFFSASCVPGADKGQFPNLCRLCAGTGENKCAFSSQEPYFSYSGAFKCLRDGAGDVAFIRESTVFEDLSDEAERDEYELLCPDNTRKPVDKFKDCHLARVPSHAVVARSVNGKEDAIWNLLRQAQEKFGKDKSPKFQLFGSPSGQKDLLFKDSAIGFSRVPPRIDSGLYLGSGYFTAIQNLRKSEEEVAARRARVVWCAVGEQELRKCNQWSGLSEGSVTCSSASTTEDCIALVLKGEADAMSLDGGYVYTAGKCGLVPVLAENYKSQQSSDPDPNCVDRPVEGYLAVAVVRRSDTSLTWNSVKGKKSCHTAVDRTAGWNIPMGLLFNQTGSCKFDEYFSQSCAPGSDPRSNLCALCIGDEQGENKCVPNSNERYYGYTGAFRCLAENAGDVAFVKDVTVLQNTDGNNNEAWAKDLKLADFALLCLDGKRKPVTEARSCHLAMAPNHAVVSRMDKVERLKQVLLHQQAKFGRNGSDCPDKFCLFQSETKNLLFNDNTECLARLHGKTTYEKYLGPQYVAGITNLKKCSTSPLLEACEFLRK"}}, "tested_on": "IL-8 secretion of HT-29 cells", "assay": "IL-8 secretion and viability of HT-29 cells pre-incubated with test compounds and challenged with Lyovec-complexed Poly I:C", "format": "cell-based, Human"}
{"molecule": "B1", "values": [{"measurement": "Mean IL-8 secretion", "setting": "0.1% + Poly I:C, Poly I:C alone 21799.28", "value": 9201.69, "unit": "pg/mL"}, {"measurement": "Mean IL-8 secretion", "setting": "0.1%, no Poly I:C, Medium 359.54", "value": 343.19, "unit": "pg/mL"}]}
